Assays:
[1] = molecular target: unknown target molecule expressed on the plasma membranes of human HCC cells
[2] = molecular target: unknown target molecule expressed on the plasma membranes of human HCC cells; assay: flow cytometry on HCC cell line HA22T; design: concentration or dose not given beside the values
[3] = molecular target: unknown target molecule expressed on the plasma membranes of human HCC cells; assay: flow cytometry on HCC cell lines Changliver and J5 (range over the two lines); design: concentration or dose not given beside the values
[4] = molecular target: unknown target molecule expressed on the plasma membranes of human HCC cells; assay: flow cytometry on HCC cell lines Mahlavu, 59T, Hep3B, HepG2, NTUBL and SKHepl (range over the six lines); design: concentration or dose not given beside the values
[5] = molecular target: unknown target molecule expressed on the plasma membranes of human HCC cells; assay: in vivo competition, 100 ug SP94 co-injected with 2x10^9 pfu PC94 (competitor of PC94), Mahlavu xenograft; phage recovered from tumor

SFSIIHTPILPL (peptide, not shown: large carriers) [phage clone 94 (PC94)]
fold binding activity over control phage [1]: 8 fold | percent reactive cells (FACS) [2]: 19.1% | percent reactive cells (FACS) [3]: 25.7 to 31.9% | percent reactive cells (FACS) [4]: 47 to 81.2%

SFSIIHTPILPL [SP94 synthetic peptide (…)]
percent inhibition of PC94 binding to tumor tissue [5]: 88%
